Test results from US20100221257A1.

Assays:
[1] = molecular target: Human sIL-1R1 (R&D Systems), un-tagged (human) (UniProt P14778); assay: KinExA, IgG equilibrated in solution with un-tagged sIL-1R1; free IgG captured on IL-1R1 beads
[2] = molecular target: human IL-1R1, endogenous on human cells (HeLa cells; whole blood) (human) (UniProt P14778); assay: cell-based or functional assay
Chain of human IL-1R1, endogenous on human cells (HeLa cells; whole blood) (human) (P14778 18-569): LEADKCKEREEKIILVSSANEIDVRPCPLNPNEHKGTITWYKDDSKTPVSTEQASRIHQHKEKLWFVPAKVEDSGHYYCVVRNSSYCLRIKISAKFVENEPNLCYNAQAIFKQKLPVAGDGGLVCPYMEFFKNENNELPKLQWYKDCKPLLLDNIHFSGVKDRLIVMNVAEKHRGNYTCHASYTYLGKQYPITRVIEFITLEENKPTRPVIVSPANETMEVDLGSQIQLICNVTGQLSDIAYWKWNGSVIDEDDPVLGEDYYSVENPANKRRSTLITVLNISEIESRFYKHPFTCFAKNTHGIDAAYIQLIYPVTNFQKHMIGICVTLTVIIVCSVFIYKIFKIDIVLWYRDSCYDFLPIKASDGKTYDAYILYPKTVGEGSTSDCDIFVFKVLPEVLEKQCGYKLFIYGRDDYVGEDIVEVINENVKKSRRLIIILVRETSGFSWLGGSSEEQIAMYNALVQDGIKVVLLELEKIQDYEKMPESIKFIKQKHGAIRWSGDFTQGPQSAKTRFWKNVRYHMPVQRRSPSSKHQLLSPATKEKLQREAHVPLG

Chain of Human sIL-1R1 (R&D Systems), un-tagged (human) (P14778 18-332 limits assumed): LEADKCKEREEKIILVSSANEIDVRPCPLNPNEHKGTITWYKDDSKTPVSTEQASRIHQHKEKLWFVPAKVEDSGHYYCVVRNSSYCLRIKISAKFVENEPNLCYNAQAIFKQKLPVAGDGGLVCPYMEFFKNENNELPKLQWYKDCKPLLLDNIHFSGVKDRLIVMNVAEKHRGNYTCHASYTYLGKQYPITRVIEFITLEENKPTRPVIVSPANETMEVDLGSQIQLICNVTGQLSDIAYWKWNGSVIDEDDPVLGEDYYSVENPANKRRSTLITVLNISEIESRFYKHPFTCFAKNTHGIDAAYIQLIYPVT

Kd [1]: 4.12 pM
IC50, inhibition of IL-1 alpha induced IL-8 release in HeLa cells (N = 3) [2]: 11.7 pM
IC50, inhibition of IL-1 beta induced IL-8 release in HeLa cells (run with the GL IgG2 set, N = 5-6) [2]: 5.9 pM
IC50, inhibition of IL-1 beta induced IL-8 release in HeLa cells (run with the IgG1 set, N = 6-7) [2]: 5.3 pM
IC50, inhibition of human IL-1β induced IL-8 release from HeLa cells [2]: 9 pM
Substance: AMG108 IgG2 (antibody)
